Assay results published in patent publication US10106589B2, “Compositions and methods for immunomodulation” (FUNDACIO INSTITUT D'INVESTIGACIO BIOMEDICA DE BELLVITGE …, priority 2011, dated 2018).
Entries after “also recorded” stand apart in the source; their conditions may differ.

Tests used:
human Mo-DCs [1] = test: Flow cytometry of cell surface markers on treated, LPS-matured Mo-DCs; settings: CCP6-based peptides at 100 μM
human Mo-DCs [2] = test: as above; assay type: cell-based; settings: treated throughout differentiation and maturation, LPS-matured; for CD1a expression / CD80 expression / CD83 expression / CD86 expression: dose-dependent; for expression of surface markers (CD14, HLA-DR, CD40, CD80, CD83, CD86, CD1a): vs untreated mDC
Protocol: Peripheral blood mononuclear cells (PBMCs) were obtained from buffy coat preparations belonging to healthy donors from the Blood and Tissue Bank (Barcelona, Spain) after Ficoll-Paque™ density centrifugation (GE Healthcare Bio-Sciences AB; Uppsala, Sweden). Monocytes were purified by two different methods: 1) Cells were plated at 1×10^6 cells/ml in 60 mm culture plates (Corning, Spain) in RPMI without serum and allowed to adhere for 2 h at 37° C. in 5% CO2. The non-adherent cells were removed by washing in PBS. […] 2) Cells were purified using colloidal super-paramagnetic microbeads conjugated with monoclonal mouse anti-human CD14 antibodies (MACS, Miltenyi Biotec, Auburn, Calif., or EasySep® Positive Selection Cocktail, StemCell Technologies, Grenoble, France). The purity of CD14^+ cells was tested by CD14 staining and flow cytometry analysis (>90% CD14^+ cells). Monocyte-derived DCs (Mo-DCs) were generated supplementing the monocyte cultures with complete RPMI 1640 medium plus GM-CSF (800 UI/ml) and IL-4 (500 UI/ml) (both from Gentaur, Kampenhout, Belgium) at day 0 and day 3 of culture. For DC maturation, at day 5 iDCs were further stimulated for 48 h with 5 μg/ml LPS (Escherichia coli 055.B5, Sigma L2880, Copenhagen, Denmark).
Cell surface phenotypes were analyzed using the following monoclonal antibodies: FITC-conjugated anti-HLA-DR (Immu-357), FITC-conjugated anti-CD83 (HB15a), FITC-conjugated anti-CD14 (RMO52), PE-conjugated anti-CD40 (MAB89), PE-conjugated anti-CD1a (BL6), PE-conjugated anti-CD80 (MAB104), PE-conjugated anti-CD86 (HA5.2B7) (all from Beckman-Coulter), Alexa Fluor 488-conjugated anti-CCR7 (TG8/CCR7, Biolegend, San Diego, Calif.), and the respective isotype controls from the same commercial sources. After washing with PBS, cells were subsequently stained with 3 μl MoAb/10^5 cells in 100 μl of FACS buffer (PBS containing 1% BSA and 0.1% sodium azide) for 20 min at room temp. Stained cells were analysed using a FACScalibur (Becton Dickinson). Mo-DCs were gated according to forward scatter (FSC) and side scatter (SSC) parameters. The results were analysed using CellQuestPro software (Becton Dickinson).
Both the different C4BP isoforms (α7β1, α7β0 and α6β0), and Factor H were added at 2, 5 and 10 μg/ml throughout Mo-DC differentiation, maturation, or both. Namely, for the differentiation assays the proteins were added at day 0 and replenished at day 3. For the maturation assays the proteins were added at day 5, either alone or combined with LPS. Finally, for the differentiation plus maturation assays the proteins were added at days 0, 3 and 5 (at the last time point, combined with LPS).

human Mo-DCs [3] = test: Quantitative RT-PCR of CCR7, IDO, BIC-1, SOD2 in Mo-DCs; assay type: cell-based; settings: RT-qPCR; pretreated, LPS-matured Mo-DCs
Protocol: Mo-DCs (10^6/condition) were harvested at day 7 and the mRNA was extracted using the RNeasy RNA Isolation kit (Qiagen) and incubated with RNase-free DNase I (Ambion, Austin, Tex.) according to the manufacturer's protocol. A two-step real-time RT-PCR technique was used to determine the relative mRNA levels of human CCR7, BIC-1, IDO and SOD2. Reverse transcription reactions were performed with 500 ng of total RNA using the Omniscript RT kit (Qiagen). Quantification of mRNA levels was performed by real-time polymerase chain reaction (PCR) with the use of the LightCycler technology (Roche Molecular Biochemicals, Indianapolis, Ind.). The following primers were used: CCR7-f (5′-TGGGCATCTGGATACTAGC-3′) (SEQ ID NO:6), CCR7-r (5′-AAGAAAGGGTTGACGCAGC-3′) (SEQ ID NO:7); IDO-f (5′-[…]-3′) (SEQ ID NO:8); IDO-r (5′-[…]-3′) (SEQ ID NO:9); BIC-1-f (5′-[…]-3′) (SEQ ID NO:10), BIC-1-r (5′-[…]-3′) (SEQ ID NO:11); SOD2-f (5′-GACAAACCTCAGCCCTAAC-3′) (SEQ ID NO:12), SOD2-r (5′-[…]-3′) (SEQ ID NO:13), yielding products of 435, 227, 296 bp, and 248 bp, respectively. These gene-specific primer pairs were designed using Oligo 4.0 and Primer 3 software packages (MBI, Cascade, Colo.) and selected to prevent primer-dimer formation.
All samples were normalized with the use of the following primer set for the constitutively expressed human cyclophilin gene: CypA-f (5′-[…]-3′) (SEQ ID NO:14) and CypA-r (5′-CACCACATGCTTGCCATCC-3′) (SEQ ID NO:15) (Pluvinet R. et al., 2004, Blood. 104: 3642-3646). All primers were purchased from Bonsai Technologies (Copenhagen, Denmark).
PCR amplifications were performed in a 20 μl volume containing 2 μl ready-to-use reaction mix, 10×DNA Master SYBR Green I (Roche Molecular Biochemicals); MgCl2 (3 mM for CCR7; 4 mM for BIC-1 and SOD2, and 5 mM for IDO); 0.15 μM of each primer; 5% dimethyl sulfoxide (DMSO); and 75 ng cDNA as template. The amplification program used an initial denaturation at 95° C. for 10 min, followed by 45 cycles: 95° C. for 1 sec; 58° C. (CCR7 and SOD2)/60° C. (BIC-1 and IDO) for 5 sec; 72° C. for 10 sec.

human Mo-DCs [4] = test: Scanning electron microscopy of Mo-DC surface morphology; assay type: cell-based; settings: SEM after 48 h LPS maturation
Protocol: Monocytes were seeded on glass slides covered with either poly-L-lysine (25 μg/ml) or fibronectin (42 μg/ml), cultured for 5 days in complete RPMI medium supplemented with 800 U/ml GM-CSF, 500 U/ml IL-4, and the C4BP isoforms α7β1, α7β0, or Factor H (10 μg/ml), and further stimulated with LPS for 48 hours in the same medium. The resulting DCs were fixed in 1% paraformaldehyde and 1.25% glutaraldehyde in cacodylate buffer for 2 h. Finally, the cells were post-fixed in 1% OsO4, and dehydrated with graded series of ethanol followed by acetone. After dehydration the cells were dried in a critical-point dryer and coated with gold before observation by scanning electron microscopy (Zeiss DSM940A).

allogeneic CD3+ T cells = test: Mixed leukocyte reaction ([3H]-thymidine incorporation); assay type: cell-based, human; settings: Mo-DCs pre-incubated and matured with LPS; DC:T 1:40, 1:80, 1:160; 5 days
Protocol: CD3^+ T cells (10^5/well) and C4BP-treated (α7β1 and α7β0), or Factor H-treated, and LPS-activated Mo-DCs were seeded in a 96-well round-bottom plate at various DC:T cell ratios (1:40, 1:80 and 1:160) and cultured in X-VIVO 15 medium (Biowittaker, Walkersville, Md.) supplemented with 100 μg/ml of streptomycin, 100 IU/ml of penicillin and 2 mM L-glutamine (all from Invitrogen) plus 2% Human AB Serum. Allospecific proliferation was measured after 5 days of incubation. At day 4, the […] [^3H]-thymidine (1 μCi/well, Perkin Elmer, Boston, Mass.) was added, followed by incubation for another 16 h. Labeled cells were then harvested onto glass-fiber filters with a Filtermate Harvester (Packard, Meriden, Conn.), and the T cell proliferation rate was determined by the amount of [^3H]-thymidine incorporation, which was measured in a TopCount NXT counter (Packard). Results are reported as the mean cpm±SD of thymidine incorporation in quadruplicate culture wells.

Molecule	CD83 upregulation on LPS-matured Mo-DCs (human Mo-DCs [1])	toxicity to the DCs (human Mo-DCs [1])	CD1a expression (human Mo-DCs [2])	CD80 expression (human Mo-DCs [2])	CD83 expression (human Mo-DCs [2])	CD86 expression (human Mo-DCs [2])	expression of surface markers (CD14, HLA-DR, CD40, CD80, CD83, CD86, CD1a) (human Mo-DCs [2])	BIC-1 transcript level (human Mo-DCs [3])	CCR7 transcript level (human Mo-DCs [3])	IDO transcript level (human Mo-DCs [3])	surface morphology of Mo-DCs (human Mo-DCs [4])	allogeneic T cell proliferation (allogeneic CD3+ T cells)
Ac-HRKSRPANHSVYFYGDEISFSSHETSRFSA-NH2 [PS6-02]	seemed to prevent CD83 upregulation	toxic	–	–	–	–	–	–	–	–	–	–
PS6-03: SEQ ID NO:4 EISFSSH ETSRFSAISQ GDGTWSPRTP SSG, CCP6-derived peptide (EISFSSHETSRFSAISQGDGTWSPRTPSSG; PS6-03)	seemed to prevent CD83 upregulation	–	–	–	–	–	–	–	–	–	–	–
PS6-04: SEQ ID NO:5 ITQHRK SRPANHSV, 14-mer CCP6-derived peptide (ITQHRKSRPANHSV; PS6-04)	comparable effect than its C4BP α6β0 counterpart	–	–	–	–	–	–	–	–	–	–	–
C4BP α7β0: C4BP isoform exclusively composed of 7 α-chains, purified from pooled human plasma (protein, UniProt P04003 49-597, looked up) C4b-binding protein alpha …: NCGPPPTLSFAAPMDITLTETRFKTGTTLKYTCLPGYVRSHSTQTLTCNSDGEWVYNTFCIYKRCRHPGELRNGQVEIKTDLSFGSQIEFSCSEGFFLIGSTTSRCEVQDRGVGWSHPLPQCEIVKCKPPPDIRNGRHSGEENFYAYGFSVTYSCDPRFSLLGHASISCTVENETIGVWRPSPPTCEKITCRKPDVSHGEMVSGFGPIYNYKDTIVFKCQKGFVLRGSSVIHCDADSKWNPSPPACEPNSCINLPDIPHASWETYPRPTKEDVYVVGTVLRYRCHPGYKPTTDEPTTVICQKNLRWTPYQGCEALCCPEPKLNNGEITQHRKSRPANHCVYFYGDEISFSCHETSRFSAICQGDGTWSPRTPSCGDICNFPPKIAHGHYKQSSSYSFFKEEIIYECDKGYILVGQAKLSCSYSHWSAPAPQCKALCRKPELVNGRLSVDKDQYVEPENVTIQCDSGYGVVGPQSITCSGNRTWYPEVPKCEWETPEGCEQVLTGKRLMQCLPNPEDVKMALEVYKLSLEIEQLELQRDSARQSTLDKEL	–	–	significantly down-regulated	significantly down-regulated	significantly down-regulated	significantly down-regulated	inhibit up-regulation	significantly down-regulated	significantly down-regulated	significantly down-regulated	absence of long dendritic projections; also recorded: reversed the “porcupine like” DC morphology	significantly less T cell proliferation
C4BP α6β0: polymeric recombinant full-length C4BP of 6 α-chains, expressed in eukaryotic cells (protein, UniProt P04003 49-597, looked up) C4b-binding protein alpha …: NCGPPPTLSFAAPMDITLTETRFKTGTTLKYTCLPGYVRSHSTQTLTCNSDGEWVYNTFCIYKRCRHPGELRNGQVEIKTDLSFGSQIEFSCSEGFFLIGSTTSRCEVQDRGVGWSHPLPQCEIVKCKPPPDIRNGRHSGEENFYAYGFSVTYSCDPRFSLLGHASISCTVENETIGVWRPSPPTCEKITCRKPDVSHGEMVSGFGPIYNYKDTIVFKCQKGFVLRGSSVIHCDADSKWNPSPPACEPNSCINLPDIPHASWETYPRPTKEDVYVVGTVLRYRCHPGYKPTTDEPTTVICQKNLRWTPYQGCEALCCPEPKLNNGEITQHRKSRPANHCVYFYGDEISFSCHETSRFSAICQGDGTWSPRTPSCGDICNFPPKIAHGHYKQSSSYSFFKEEIIYECDKGYILVGQAKLSCSYSHWSAPAPQCKALCRKPELVNGRLSVDKDQYVEPENVTIQCDSGYGVVGPQSITCSGNRTWYPEVPKCEWETPEGCEQVLTGKRLMQCLPNPEDVKMALEVYKLSLEIEQLELQRDSARQSTLDKEL	–	–	significantly down-regulated	significantly down-regulated	significantly down-regulated	significantly down-regulated	inhibit up-regulation	significantly down-regulated	significantly down-regulated	significantly down-regulated	reversed the “porcupine like” DC morphology	–
